# Laboratory results published in PMC10329019, “Membrane translocation process revealed by in situ structures of type II secretion system secretins” (Nature Communications, 2023).
# Columns and labels:
# [1] = biological target: the molecule itself; assay: cryo-EM structure; in situ cryo-ET subtomogram averaging of GspDα particles on the inner membrane of E. coli BL21 (DE3) minicells; about 32,000 particles, C15 symmetry, 9 Å; particle radius histogram
# [2] = biological target: the molecule itself; assay: cryo-EM structure; in situ cryo-ET subtomogram averaging of particles on the outer membrane of E. coli minicells overexpressing GspDβ and GspS; 514 particles, C15 symmetry, 19 Å; C5 refinement as a test of symmetry
# [3] = biological target: the molecule itself; assay: cryo-EM structure; in situ cryo-ET subtomogram averaging of particles on the outer membrane of E. coli minicells overexpressing only GspDβ; 723 particles, C15 symmetry, 16 Å; C5 refinement as a test of symmetry
protein,measurement,setting,value
"GspDα secretin (E. coli K12 strain), no tag (natural protein, UniProt P45758 24-650, looked up, The untagged vector was used for cryo-ET imaging; the His-tagged one only for blots; also called Klebsiella-type secretin; GspDα multimer; copies: 15) ENEQYGANFNNADIRQFVEIVGQHLGKTILIDPSVQGTISVRSNDTFSQQEYYQFFLSILDLYGYSVITLDNGFLKVVRSANVKTSPGMIADSSRPGVGDELVTRIVPLENVPARDLAPLLRQMMDAGSVGNVVHYEPSNVLILTGRASTINKLIEVIKRVDVIGTEKQQIIHLEYASAEDLAEILNQLISESHGKSQMPALLSAKIVADKRTNSLIISGPEKARQRITSLLKSLDVEESEEGNTRVYYLKYAKATNLVEVLTGVSEKLKDEKGNARKPSSSGAMDNVAITADEQTNSLVITADQSVQEKLATVIARLDIRRAQVLVEAIIVEVQDGNGLNLGVQWANKNVGAQQFTNTGLPIFNAAQGVADYKKNGGITSANPAWDMFSAYNGMAAGFFNGDWGVLLTALASNNKNDILATPSIVTLDNKLASFNVGQDVPVLSGSQTTSGDNVFNTVERKTVGTKLKVTPQVNEGDAVLLEIEQEVSSVDSSSNSTLGPTFNTRTIQNAVLVKTGETVVLGGLLDDFSKEQVSKVPLLGDIPLVGQLFRYTSTERAKRNLMVFIRPTIIRDDDVYRSLSKEKYTRYRQEQQQRIDGKSKALVGSEDLPVLDENTFNSHAPAPSSR",stoichiometry N,[1],15
"GspDβ secretin (ETEC H10407 strain) with hexahistidine tag, from pETDuet-gspDβ-his-gspS, co-expressed with GspS (natural protein, UniProt E3PJ86 41-686, looked up, GspDβ, Vibrio-type type II secretion system secretin encoded in the T2SSβ operon, ETEC H10407 strain; Probably the same C-terminally tagged chain as m2 (surmised); also called Vibrio-type secretin; copies: 15) EEATFTANFKDTDLKSFIETVGANLNKTIIMGPGVQGKVSIRTMTPLNERQYYQLFLNLLEAQGYAVVPMENDVLKVVKSSAAKVEPLPLVGEGSDNYAGDEMVTKVVPVRNVSVRELAPILRQMIDSAGSGNVVNYDPSNVIMLTGRASVVERLTEVIQRVDHAGNRTEEVIPLDNASASEIARVLESLTKNSGENQPATLKSQIVADERTNSVIVSGDPATRDKMRRLIRRLDSEMERSGNSQVFYLKYSKAEDLVDVLKQVSGTLTAAKEEAEGTVGSGREIVSIAASKHSNALIVTAPQDIMQSLQSVIEQLDIRRAQVHVEALIVEVAEGSNINFGVQWASKDAGLMQFANGTQIPIGTLGAAISQAKPQKGSTVISENGATTINPDTNGDLSTLAQLLSGFSGTAVGVVKGDWMALVQAVKNDSSSNVLSTPSITTLDNQEAFFMVGQDVPVLTGSTVGSNNSNPFNTVERKKVGIMLKVTPQINEGNAVQMVIEQEVSKVEGQTSLDVVFGERKLKTTVLANDGELIVLGGLMDDQAGESVAKVPLLGDIPLIGNLFKSTADKKEKRNLMVFIRPTILRDGMAADGVSQRKYNYMRAEQIYRDEQGLSLMPHTAQPVLPAQNQALPPEVRAFLNAGRTR",stoichiometry N,[2],15
"GspDβ secretin (ETEC H10407 strain) with C-terminal hexahistidine tag, from pETDuet-gspDβ-his, expressed alone (natural protein, UniProt E3PJ86 41-686, looked up, GspDβ, Vibrio-type type II secretion system secretin encoded in the T2SSβ operon, ETEC H10407 strain; The results name BL21(DE3) for this experiment, the methods name Rosetta (DE3) for cryo-ET imaging; also called Vibrio-type secretin; source: E. coli Rosetta (DE3) minicells (co-transformed with pBS58), pETDuet-gspDβ-his, overexpressed, imaged in the cells; copies: 15) EEATFTANFKDTDLKSFIETVGANLNKTIIMGPGVQGKVSIRTMTPLNERQYYQLFLNLLEAQGYAVVPMENDVLKVVKSSAAKVEPLPLVGEGSDNYAGDEMVTKVVPVRNVSVRELAPILRQMIDSAGSGNVVNYDPSNVIMLTGRASVVERLTEVIQRVDHAGNRTEEVIPLDNASASEIARVLESLTKNSGENQPATLKSQIVADERTNSVIVSGDPATRDKMRRLIRRLDSEMERSGNSQVFYLKYSKAEDLVDVLKQVSGTLTAAKEEAEGTVGSGREIVSIAASKHSNALIVTAPQDIMQSLQSVIEQLDIRRAQVHVEALIVEVAEGSNINFGVQWASKDAGLMQFANGTQIPIGTLGAAISQAKPQKGSTVISENGATTINPDTNGDLSTLAQLLSGFSGTAVGVVKGDWMALVQAVKNDSSSNVLSTPSITTLDNQEAFFMVGQDVPVLTGSTVGSNNSNPFNTVERKKVGIMLKVTPQINEGNAVQMVIEQEVSKVEGQTSLDVVFGERKLKTTVLANDGELIVLGGLMDDQAGESVAKVPLLGDIPLIGNLFKSTADKKEKRNLMVFIRPTILRDGMAADGVSQRKYNYMRAEQIYRDEQGLSLMPHTAQPVLPAQNQALPPEVRAFLNAGRTR",stoichiometry N,[3],15
